Where a chain is given by its changes, count along the chain named. Names and notes keep the numbering of the source.
B1: Native FGF21 (random), 2 x 20k PEG (ligand)
chain: MHPIPDSSPLLQFGGQVRQRYLYTDDAQQTEAHLEIREDGTVGGAADQSPESLLQLKALKPGVIQILGVKTSRFLCQRPDGALYGSLHFDPEACSFRELLLEDGYNVYQSEAHGLPLHLPGNKSPHRDPAPRGPARFLPLPGLPPAPPEPPGILAPQPPDVGSSDPLSMVGPSQGRSPSYAS
modifications: two 20k PEG at random sites (sites not given)
B2: FGF21(K all R, R126K), 2 x 20k PEG (ligand)
chain: B1 chain with K57R, K60R, K70R, K123R, R127K
modifications: two 20k PEG (amine-specific): N-terminus and Lys 126
B3: FGF21(K56R/K59R/K122R), 2 x 20k PEG (ligand)
chain: B1 chain with K57R, K60R, K123R
modifications: two 20k PEG (amine-specific): N-terminus and the one remaining lysine (Lys 69)
B4: FGF21(all K to all R, R77K), 2 x 20k PEG (ligand)
chain: B1 chain with K57R, K60R, K70R, R78K, K123R
modifications: two 20k PEG (amine-specific): N-terminus and Lys 77
B5: FGF21(all K to all R, R175K), 2 x 20k PEG (ligand)
chain: B1 chain with K57R, K60R, K70R, K123R, R176K
modifications: two 20k PEG (amine-specific): N-terminus and Lys 175
B6: FGF21(all K to all R, R72K), 2 x 20k PEG (ligand)
chain: B1 chain with K57R, K60R, K70R, R73K, K123R
modifications: two 20k PEG (amine-specific): N-terminus and Lys 72
B7: dually PEGylated FGF21 mutant E37C, H125C, P171G (ligand)
chain: B1 chain with E38C, H126C, P172G
modifications: 20 kDa methoxy-PEG-maleimide on Cys 37 and on Cys 125
B8: dually PEGylated FGF21 mutant E37C, E91C, P171G (ligand)
chain: B1 chain with E38C, E92C, P172G
modifications: 20 kDa methoxy-PEG-maleimide on Cys 37 and on Cys 91
B9: dually PEGylated FGF21 mutant E37C, R77C, P171G (ligand)
chain: B1 chain with E38C, R78C, P172G
modifications: 20 kDa methoxy-PEG-maleimide on Cys 37 and on Cys 77
B10: dually PEGylated FGF21 mutant E91C, G120C, P171G (ligand)
chain: B1 chain with E92C, G121C, P172G
modifications: 20 kDa methoxy-PEG-maleimide on Cys 91 and on Cys 120
B11: dually PEGylated FGF21 mutant E37C, G120C, P171G (ligand)
chain: B1 chain with E38C, G121C, P172G
modifications: 20 kDa methoxy-PEG-maleimide on Cys 37 and on Cys 120
B12: dually PEGylated FGF21 mutant R77C, G120C, P171G (ligand)
chain: B1 chain with R78C, G121C, P172G
modifications: 20 kDa methoxy-PEG-maleimide on Cys 77 and on Cys 120
B13: dually PEGylated FGF21 mutant E91C, R175C, P171G (ligand)
chain: B1 chain with E92C, P172G, R176C
modifications: 20 kDa methoxy-PEG-maleimide on Cys 91 and on Cys 175
B14: dually PEGylated FGF21 mutant E37C, R175C, P171G (ligand)
chain: B1 chain with E38C, P172G, R176C
modifications: 20 kDa methoxy-PEG-maleimide on Cys 37 and on Cys 175
B15: dually PEGylated FGF21 mutant E91C, H125C, P171G (ligand)
chain: B1 chain with E92C, H126C, P172G
modifications: 20 kDa methoxy-PEG-maleimide on Cys 91 and on Cys 125
B16: PEGylated FGF21 mutant H125C (ligand)
chain: B1 chain with H126C
modifications: 20 kDa methoxy-PEG-maleimide on Cys 125
B17: PEGylated FGF21 mutant G120C (ligand)
chain: B1 chain with G121C
modifications: 20 kDa methoxy-PEG-maleimide on Cys 120
B18: PEGylated FGF21 mutant E37C (ligand)
chain: B1 chain with E38C
modifications: 20 kDa methoxy-PEG-maleimide on Cys 37
B19: PEGylated FGF21 mutant E91C (ligand)
chain: B1 chain with E92C
modifications: 20 kDa methoxy-PEG-maleimide on Cys 91
B20: PEGylated FGF21 mutant K69C (ligand)
chain: B1 chain with K70C
modifications: 20 kDa methoxy-PEG-maleimide on Cys 69
B21: PEGylated FGF21 mutant D79C (ligand)
chain: B1 chain with D80C
modifications: 20 kDa methoxy-PEG-maleimide on Cys 79
B22: PEGylated FGF21 mutant R175C (ligand)
chain: B1 chain with R176C
modifications: 20 kDa methoxy-PEG-maleimide on Cys 175
B23: PEGylated FGF21 mutant Y179C (ligand)
chain: B1 chain with Y180C
modifications: 20 kDa methoxy-PEG-maleimide on Cys 179
B24: PEGylated FGF21 mutant R126C (ligand)
chain: B1 chain with R127C
modifications: 20 kDa methoxy-PEG-maleimide on Cys 126
B25: PEGylated FGF21 mutant D46C (ligand)
chain: B1 chain with D47C
modifications: 20 kDa methoxy-PEG-maleimide on Cys 46
B26: PEGylated FGF21 mutant N121C (ligand)
chain: B1 chain with N122C
modifications: 20 kDa methoxy-PEG-maleimide on Cys 121
B27: PEGylated FGF21 mutant D38C (ligand)
chain: B1 chain with D39C
modifications: 20 kDa methoxy-PEG-maleimide on Cys 38
B28: PEGylated FGF21 mutant G113C (ligand)
chain: B1 chain with G114C
modifications: 20 kDa methoxy-PEG-maleimide on Cys 113
B29: PEGylated FGF21 mutant R77C (ligand)
chain: B1 chain with R78C
modifications: 20 kDa methoxy-PEG-maleimide on Cys 77

target: beta-klotho; test: cell-based or functional assay

In Vitro Activity EC50, ELK-luciferase assay [nM]	Binder
200	B1
38	B2
531	B3
175	B4
> 1000	B5
> 1000	B6

target: beta-klotho; test: cell-based or functional assay; remark: another data set of the same source

EC50, ELK-luciferase assay [nM]	Binder
37	B7
30	B8
27	B9
34	B10
35	B11
35	B12
155	B13
162	B14
37	B15

target: beta-klotho; test: cell-based or functional assay; remark: another data set of the same source

EC50, ELK-luciferase assay [nM]	Binder
4.5	B16
6	B17
6.9	B18
8.3	B19
5.3	B20
20.4	B21
7.9	B22
287	B23
10	B24
27.8	B25
9.2	B26
13.1	B27
12	B28
4.9	B29

From US20160244497A1 (Amgen, published 2016)
